Data: US12233132B2, “Polyoxazoline-lipid conjugates and lipid nanoparticles and pharmaceutical compositions including same” (Serina Therapeutics, Inc., priority 2021, dated 2025)

Assays:
[1] = Hydrolysis kinetics of POZ-lipid conjugates in rat plasma; format: in vitro ADME; conditions: 50% rat plasma diluted in PBS, 37° C.
Method: (§1) These solutions were spiked into the PBS or rat or human plasma media and allowed to incubate at 37° C. Samples were removed from hydrolysis media at different time intervals and quenched by addition of chilled 0.2% formic acid in methanol. […] The POZ-lipid conjugates were detected by UV absorption at 210 nm, and its breakdown and degradation metabolites were detected followed by mass spectrometry.

[2] = Hydrolysis kinetics of POZ-lipid conjugates in human plasma; format: in vitro ADME; conditions: for Half-Life 50% Human Plasma: 50% human plasma diluted in PBS, 37° C.; for rate of hydrolysis in plasma, ester versus ether linkages: compared with ether linkages (Compounds 17a, 17b and 17c)
Method: as §1

Substance | Half-Life 50% Rat Plasma [1] [h] | Half-Life 50% Human Plasma [2] [h] | rate of hydrolysis in plasma, ester versus ether linkages [2]
PEOZ 2K DMG-(triazole-2-propionate) [Compound 19b] | 1 | 5 | faster rate
PEOZ-(triazole-3-propionyl-DMG) 2K [Compound 19c] | <1 | 7 | faster rate
